The RNAGym collection of RNA variant scans (doi:10.1093/nar/gkz1192)

B1: CPEB3 Ribozyme (parent)
chain: UAACAGGGGGCCACAGCAGAAGCGUUCACGUCGCAGCCCCUGUCAGAUUCUGGUGAAUCUGCGAAUUCUGCUGUAUAUCUC

Variants of: B1
Assay: self-cleavage, relative activity (ratio to wild type); higher = more cleavage; in vitro, sequencing
Summary of the method: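 Libraries of CPEB3 self-cleaving ribozyme mutants came from rounds of error-prone PCR and carried barcodes, which DNA sequencing matched to variants. In vitro transcription used T7 RNA polymerase at 37°C for 5 hours, with a further 15 min in DNase I before EDTA stopped the reaction; the ribozymes cleaved during both steps. The RNA was reverse transcribed with template switching and sequenced on Illumina. Relative activity is the cleaved/total read fraction of a variant divided by that of the unmutated ribozyme, averaged over three batches with at least 5 reads.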

Variant	self-cleavage
UAACAGGGGGCCACAGCAGCAGCGUUCACGUCGCAGCCCCUGUCAGAUUCUGGUGAAUCAGCGAAUUCUGCUGUAUAUCUC [A20C U60A]	0.43
UAACAGGGGGCCACAGCAGCAGCGUUCACGUCGCAGCCCCUGUCAGAUUCUGGUGAAUCCGCGAAUUCUGCUGUAUAUCUC [A20C U60C]	0.17
UAACAGGGGGCCACAGCAGCAGCGUUCACGUCGCAGCCCCUGUCAGAUUCUGGUGAAUCUGCGAAUUCUGCUGUAUACCUC [A20C U78C]	0.4
UAACAGGGGGCCACAGCAGCAGCGUUCACGUCGCAGCCCCUGUCAGACUCUGGUGAAUCUGCGAAUUCUGCUGUAUAUCUC [A20C U48C]	0.28
UAACAGGGGGCCACAGCAGCAGCGUUCACGUCGCAGCCCCUGUCAGAUUCUGGUGAAUCUGCGAAUUCUGCUGUAUAUCAC [A20C U80A]	0.51
UAACAGGGGGCCACAGCAGCAGCGUUCACGUCGCAGCCCCUGUCAGAUUCUGGUGAAUCUGCGAAUUCUGCUGUAUAUCCC [A20C U80C]	0.54
UAACAGGGGGCCACAGCAGCAGCGUUCACGUCGCAGCCCCUGUCAGAUUCUGGUGAAUCUGCGAAUUCUGCUGCAUAUCUC [A20C U74C]	0.46
UAACAGGGGGCCACAGCAGCAGCGUUCACGUCGCAGCCCCUGCCAGAUUCUGGUGAAUCUGCGAAUUCUGCUGUAUAUCUC [A20C U43C]	0.28
UAACAGGGGGCCACAGCAGCAGCGUUCACGUCGCAGCCCCUGACAGAUUCUGGUGAAUCUGCGAAUUCUGCUGUAUAUCUC [A20C U43A]	0.35
UAACAGGGGGCCACAGCAGCAGCGUUCACGUCGCAGCCCCUGUCAGAUUCUGGUGAAUCUGCGAAUCCUGCUGUAUAUCUC [A20C U67C]	0.33
UAACAGGGGGCCACAGCAGGAGCGUUCACGUCGCUGCCCCUGUCAGAUUCUGGUGAAUCUGCGAAUUCUGCUGUAUAUCUC [A20G A35U]	0.34
UAACAGGGGGCCACAGCAGGAGCGUUCACGUCGCGGCCCCUGUCAGAUUCUGGUGAAUCUGCGAAUUCUGCUGUAUAUCUC [A20G A35G]	1.25
UAACAGGGGGCCACAGCAGGAGCGUUCACGUCGCCGCCCCUGUCAGAUUCUGGUGAAUCUGCGAAUUCUGCUGUAUAUCUC [A20G A35C]	0.65
UAACAGGGGGCCACAGCAGGAGCGUUCACGUCGCAGCCCCUGUCAGAUUCUGGUGAAUCUGCGAAUUCUGCUGUAUAUCUC [A20G]	0.89
UAACAGGGGGCCACAGCAGGAGCGUUCACGUCGCAGCCCCUGUCCGAUUCUGGUGAAUCUGCGAAUUCUGCUGUAUAUCUC [A20G A45C]	0.24
UAACAGGGGGCCACAGCAGCAGCGUUCACGUCGCAGCCCCUGUCAGAUUCUGGUGAAUCUGCGAAUUCUGCGGUAUAUCUC [A20C U72G]	0.09
UAACAGGGGGCCACAGCAGCAGCGUUCACGUCGCAGCCCCUGUCAGAUUCUGGUGAAUCUGCGAAUUCUGCAGUAUAUCUC [A20C U72A]	0.33

Variant	self-cleavage
UAACAGGGGGCCACAGCAGCAGCGUUCACGUCGCAGCCCCUGUCAGAUUCUGGUGAAUCUGCGAAUUCUGCCGUAUAUCUC [A20C U72C]	0.3
UAACAGGGGGCCACAGCAGCAGCGUUCACGUCGCAGCCCCUGUCAGAUUCAGGUGAAUCUGCGAAUUCUGCUGUAUAUCUC [A20C U51A]	0.32
UAACAGGGGGCCACAGCAGGGGCGUUCACGUCGCAGCCCCUGUCAGAUUCUGGUGAAUCUGCGAAUUCUGCUGUAUAUCUC [A20G A21G]	0.37
UAACAGGGGGCCACAGCAGGCGCGUUCACGUCGCAGCCCCUGUCAGAUUCUGGUGAAUCUGCGAAUUCUGCUGUAUAUCUC [A20G A21C]	0.32
UAACAGGGGGCCACAGCAGGUGCGUUCACGUCGCAGCCCCUGUCAGAUUCUGGUGAAUCUGCGAAUUCUGCUGUAUAUCUC [A20G A21U]	0.26
UAACAGGGGGCCACAGCAGCAGCGUUCACGUCGCAGCCCCUGUCAGAUUCUGGUGAAUCUGCGAACUCUGCUGUAUAUCUC [A20C U66C]	0.23
UAACAGGGGGCCACAGCAGCAGCGUUCACGUCGCAGCCCCUGUCAGAUUCUGGUGAAUCUGCGAAGUCUGCUGUAUAUCUC [A20C U66G]	0.45
UAACAGGGGGCCACAGCAGCAGCGUUCACGUCGCAGCCCCUGUCAGAUUCUGGCGAAUCUGCGAAUUCUGCUGUAUAUCUC [A20C U54C]	0.2
UAACAGGGGGCCACAGCAGCAGCGUUCACGUCGCAGCCCCUGUCAGAUUCUGGUGAACCUGCGAAUUCUGCUGUAUAUCUC [A20C U58C]	0.43
UAACAGGGGGCCACAGCAGGAGCGUUCCCGUCGCAGCCCCUGUCAGAUUCUGGUGAAUCUGCGAAUUCUGCUGUAUAUCUC [A20G A28C]	0.52
UAACAGGGGGCCACAGCAGGAGCGUUCUCGUCGCAGCCCCUGUCAGAUUCUGGUGAAUCUGCGAAUUCUGCUGUAUAUCUC [A20G A28U]	0.58
UAACAGGGGGCCACAGCAGGAGCGUUCGCGUCGCAGCCCCUGUCAGAUUCUGGUGAAUCUGCGAAUUCUGCUGUAUAUCUC [A20G A28G]	0.44
UAACAGGGGGCCACAGCAGCAGCGUUCACGUCGCAGCCCCCGUCAGAUUCUGGUGAAUCUGCGAAUUCUGCUGUAUAUCUC [A20C U41C]	0.29
UAACAGGGGGCCACAGCAGCAGCGUUCACGUCGCAGCCCCUGUCAGAUUCUGGUGAAUCUGCGAAUUCAGCUGUAUAUCUC [A20C U69A]	0.34
UAACAGGGGGCCACAGCAGCAGCGUUCACGUCGCAGCCCCUGUCAGAUUCUGGUGAAUCUGCGAAUUCCGCUGUAUAUCUC [A20C U69C]	0.18
UAACAGGGGGCCACAGCAGCAGCGUUCACGUCGCAGCCCCUGUCAGAUACUGGUGAAUCUGCGAAUUCUGCUGUAUAUCUC [A20C U49A]	0.16
UAACAGGGGGCCACAGCAGCAGCGUUCACGUCGCAGCCCCUGUCAGAUCCUGGUGAAUCUGCGAAUUCUGCUGUAUAUCUC [A20C U49C]	0.17
